According to patent publication US20230348564A1, “ANTI-CANCER PROTEINS” (UNICHEM LABORATORIES LTD, priority 2020, published 2023):

Tests used:
mechanistic biomarkers = test: modulation of mechanistic biomarkers (summary); format: cell-based
Text: The effect of modulation of mechanistic biomarkers by recombinant lectin having the amino acid sequence of SEQ ID NO.2 is summarized as below: • increased levels of HGF, which binds to its receptor C-Met, and then acts on MAPK, • activated ATF-2 which is a tumor suppressor and acts via inducing apoptosis, • increased expression of c-kit, which is receptor for SCF, this acts downstream on MAPK, • increased the expression of JNK and inhibits p53, which activates AFT-2 resulting in apoptosis, • stimulated VEGF, VEGF-A and VEGFR2 expression, which activates Ras-Raf pathway, • inhibited expression of EGF, which binds to EGFR and exerts anticancer effect via Ras-Raf pathway or PKC, • stimulated Her-2, which activates Ras-Raf-MEK1-MAPK-ERK activation, • increased ERK and MEK-1 levels, which activated p90RSK and MMPs expression. ERK also acts via stat-3 and NF-KB, • stimulated GMCSF and IL-6 expression, which act via JAK-STAT pathway and activates NF-KB, • activated IL-4R expression, which connects to JAK-STAT pathway. IL-4R also acts via PI3K-Akt arm, • increased IL-8 levels, which acts via PI-3K-Akt-FOX3 arm. Akt also acts via Stat-3-NF-KB arm, where SEQ ID NO. 2 exerted an increase in Stat-3, • increased expression of Leptin, which binds to its receptor Leptin-R and acts on ERK pathway, • increased levels of cytokines (GMCSF, IL-6 and IL-8) may also interact with the immune system in tumor microenvironment to mount anticancer immunoprotective effect, • activated of TNF-α which connects to JNK pathway, • increased levels of endoglin-1 expression, which is a receptor for TGF-β. […] Binding to Tie-2 regulates PI3k pathway, • activation of Kallikrien-3 & Kallikrien-5 that acts as act a tumor suppressor, via induction of apoptosis, • activation of TRAIL & TRAILR2 causes apoptosis primarily in tumor cells, by binding to certain death receptors, • activation of Osteopontin (PON) which binds to receptors αVβ3 and CD44 and acts via Akt pathway, • inhibited Galectin-1 which either acts via Ras-Raf pathway or PI3k-Akt pathway.

U251MG cell line = test: Mitochondrial membrane depolarization by JC-1 staining; format: cell-based, Human; details: 1 μg/mL-80 μg/mL
Protocol: (§1) The evaluation of pro-apoptotic effect of SEQ ID NO. 2 in brain tumor cell lines U251MG & IOMM Lee was conducted. The cells were treated with SEQ ID NO. 2 at various concentrations around IC50 values. Resultant effect on apoptosis was determined via externalization of Phosphatidyl Serine (PS) on cell membrane by Annexin-V staining, mitochondrial membrane depolarization by JC-1 staining and cell cycle distribution analysis by Propidium Iodide (PI) staining. Increase in apoptotic markers in U251MG & IOMM-Lee cell lines reflected the pro-apoptotic potential of SEQ ID NO. 2 in brain tumor. • Externalization of PS on cell membrane by Annexin-V staining on U251MG cell line: SEQ ID NO.

IOMM-Lee cell line = test: as above; format: cell-based, Human; details: 1 μg/mL-80 μg/mL
Protocol: as §1

HGFR/c-MET = test: biomarker levels in IOMM-Lee by multiplex analysis; format: cell-based, Human; details: 1 μg/mL-80 μg/mL, 48 h
Text: (§2) Effect of SEQ ID No 2 on the expression of following 7 biomarkers were estimated in Human Meningioma cell line (IOMM-Lee) using multiplex analysis: TNF-alpha, VEGF, VEGFR2, HGF, HGFR/c-MET, PDGF-BB, and Contactin-1. Levels of another marker, Notch-1 were also estimated by ELISA in the same cell line. These 8 biomarkers play very crucial role in the pathogenesis and progression of Brain Tumor. […] Supernatants were collected and the levels of these 8 markers were investigated.

Contactin-1 = test: biomarker levels in IOMM-Lee by multiplex analysis; format: cell-based, Human; details: 1 μg/mL-80 μg/mL, 48 h
Text: as §2

VEGF = test: biomarker levels in IOMM-Lee by multiplex analysis; format: cell-based, Human; details: 1 μg/mL-80 μg/mL, 48 h
Text: as §2

HGF = test: biomarker levels in IOMM-Lee by multiplex analysis; format: cell-based, Human; details: 1 μg/mL-80 μg/mL, 48 h
Text: as §2

PDGF-BB = test: biomarker levels in IOMM-Lee by multiplex analysis; format: cell-based, Human; details: 1 μg/mL-80 μg/mL, 48 h
Text: as §2

VEGFR2 = test: biomarker levels in IOMM-Lee by multiplex analysis; format: cell-based, Human; details: 1 μg/mL-80 μg/mL, 48 h
Text: as §2

TNF-α = test: biomarker levels in IOMM-Lee by multiplex analysis; format: cell-based, Human; details: 1 μg/mL-80 μg/mL, 48 h
Text: as §2

B1: SEQ ID NO. 2: recombinant lectin; variant of the S. rolfsii lectin amino acid sequence (reported as Rec-2 in WO 2010/095143) (protein)
chain: TYKITVRVYQTNPDAFFHPVEKTVWKYANGGTWTITDDQHVLTMGGSGTSGTLRFHADNGESFTATFGVHNYKRWCDIVTNLAADETGMVINQQYYSQKNREEARERQLSNYQVKNAKGRNFQIVYTEAEGNDLHANLIIG
modifications: In vitro synthesis
Mechanistic biomarkers
  ATF-2: activated
  Angiopoietin-1 & Angiopoietin-2: activation
  CD40L: inhibited
  ERK and MEK-1 levels: increased
  Fol-1 expression: increased
  GMCSF and IL-6 expression: stimulated
  Galectin-1: inhibited
  Galectin-3: inhibited
  Her-2: stimulated
  IL-4R expression: activated
  IL-8 levels: increased
  Kallikrien-3 & Kallikrien-5: activation
  Osteopontin (PON): activation
  PDGF-BB: activation
  Stat-3: increase
  TGF-alpha: activation
  TNF-α: activated
  TRAIL & TRAILR2: activation
  VEGF, VEGF-A and VEGFR2 expression: stimulated
  expression of EGF: inhibited
  expression of JNK: increased
  expression of Leptin: increased
  expression of c-kit: increased
  levels of HGF: increased
  levels of endoglin-1 expression: increased
  p53: inhibits
U251MG cell line
  increase in mitochondrial membrane depolarization as compared to Control (Untreated): 36.8%-60.9%
IOMM-Lee cell line
  increase in mitochondrial membrane depolarization as compared to Control (Untreated): 16.1%-36.4%
MDA-MB-453
  % Cytotoxicity: 46.6%
HGFR/c-MET
  Percentage inhibition on levels of HGFR/c-MET: 5.5%-19.3%
Contactin-1
  Percentage inhibition on levels of Contactin-1: 0.3%-27.2%
VEGF
  Percentage inhibition on levels of VEGF: 3.9%-49.3%
HGF
  Percentage inhibition on levels of HGF: 43.8%-93%^
PDGF-BB
  Percentage inhibition on levels of PDGF-BB: 33.6%-100%
VEGFR2
  Percentage inhibition on levels of VEGFR2: 17.8%-22.5%
TNF-α
  Percentage inhibition on levels of TNF-α: 16.8%-42.3%
MCF-7
  % Cytotoxicity: 28.0%
